Data taken from patent publication US12662540B2, “Compositions and methods for inhibition of MICA/B shedding” (DANA-FARBER CANCER INSTITUTE, INC., priority 2017, dated 2026).

Assays:
[1] = tested on: subcutaneous B16F10 tumors; experiment: Subcutaneous B16F10-MICA model; assay type: in vivo, mice (C57BL/6, Igh−/−)
Description: C57BL/6 mice were injected subcutaneously with 1×10^6 B16F10 cells that had been transduced with different lentiviral vectors (ZsGreen reporter). Five days later, treatment was initiated with 7C6-mIgG2a, 7C6-mIgG2b-DANA, or isotype control (C1184) antibodies (200 μg/mouse). Treatment was continued as indicated in the relevant figures. For antibody blockade, Igh^−/− mice were given 200 μg/mouse of anti-NKG2D (HMG2D) or control IgG (MOPC-21) on days −1, 0, 5, 9, 14, and 19. Mice were bled on day 9. Tumor size was monitored with a digital caliper and the tumor area was calculated by multiplying the two largest diameters. To minimize suffering, the end point was defined as a tumor size of 200 mm2.
C57BL/6 mice were injected subcutaneously with 1×10^6 B16F10 cells that had been transduced with different lentiviral vectors (ZsGreen reporter). Five days later, treatment was initiated with 7C6-mIgG2a, 7C6-mIgG2b-DANA, or isotype control (C1184) antibodies (200 μg/mouse). Treatment was continued as indicated in the relevant Figures. For antibody blockade, Igh^−/− mice were given 200 μg/mouse of anti-NKG2D (HMG2D) or control IgG (MOPC-21) on days −1, 0, 5, 9, 14, and 19. Mice were bled on day 9. Tumor size was monitored with a digital caliper and the area was calculated by multiplying the two largest diameters. To minimize suffering, the end point was defined as the time point when tumors reached a size of 200 mm^2.
Igh^−/− mice were injected subcutaneously with 1×10^6 B16F10-MICA cells that had been transduced with a ZsGreen-based lentiviral vector that drives MICA expression. On days 5, 7 and 9 after tumor cell inoculation, mice were treated with 200 μg 7C6-mIgG2a or isotype control antibodies. On days 7 and 14, sets of mice were euthanized and tumors were removed. Tumors were then mechanically dissociated to preserve MICA integrity on the cell surface. Next, Fc receptors were blocked using Mouse True Stain FcX (Biolegend). Cells were subsequently stained with a PE-conjugated anti-mouse IgG antibody (Poly4053, Biolegend). Cells were then washed and stained with APC-conjugated anti-MICAS antibody (6D4), PE-Cγ7-CD45.2 and Zombie NIR (all from Biolegend). Viable tumor cells were identified by flow cytometry based on size, ZsGreen fluorescence and absence of CD45.2 expression. Samples were examined using a Sony Spectral Analyzer or Beckman Coulter CytoFLEX, and data were analyzed by FlowJo.

[2] = tested on: B16F10-MICA lung metastases; experiment: Flow cytometry-based analysis of immune and tumor cells in lung tissue; assay type: in vivo, C57BL/6 mice
Description: Wild-type mice were injected with 1×10^6 B16F10 cells that were previously transduced with ZsGreen-based lentiviral vectors (full-length MICA, secreted MICA or empty vector). In some experiments, mice received a lower dose of B16F10-MICA tumor cells (7×10^5). On days 1, 2, 7 and 10 following B16F10-MICA cell injection, mice received 200 μg of 7C6-mIgG2a or isotype control (C1184) antibodies by intraperitoneal injection. Prior to euthanasia, mice received an intravenous injection of 50 μl of APC-conjugated anti-CD45.2 (clone104, Biolegend) to label intravascular immune cells. Approximately 5 minutes later, mice were euthanized by CO2 inhalation and cell suspensions were generated from lung tissue. Lungs were cut into small pieces which were re-suspended in 10 ml of RPMI-1640 supplemented with 1 mg/ml collagenase type IV, 0.1 mg/ml hyaluronidase, and 20 U/ml DNase type IV. Samples were dissociated in a gentleMACS instrument (Miltenyi) using the program 37C_m_LDK 1 which digests the tissue by incubation with 37° C. followed by mechanical dissociation. Cells were then washed with PBS, Fc receptors were blocked with Mouse True Stain FcX (Biolegend), and cells were stained with PE-Cy7 or v450-conjugated anti-CD45.2 (104), PE or BV785-NK1.1 (PK136), PerCP-Cy5.5 or Alexa^700-NKp46 (29A1.4), APC or APC-Cy7-CD3c (145.2C11), APC or BV511-TCRβ, PE-Cy5 or Alexa^488-CD69 (H1.2F3), BV421-NKG2D (CX5), BV510-Ly49C (5E6), BV570-CD62L (MEL-14), BV605-CD49a (Ha31/8), Alexa^488-EOMES (Dan11mag), PE-Granzyme A (GzA-3G8.5), PE or PERCP-Cy5.5-CD16/CD32 (93), PE-Cy7-Granzyme B (NGZB), BV510-DNAM-1 (10E5), Alexa^488-KLRG1 (2F1), PE-CXCR6 (SA051D1), PERCP-Cy5.5 or PE-Cy7-CD127 (A7R34), BV510-CXCR3 (CXCR3-173), Zombie NIR, Zombie Yellow or Zombie UV (all from Biolegend, BD Pharmigen or eBiosciences). For transcription factor staining, cells were fixed and permeabilized by a Transcription Factor Buffer kit (BDB562574). For Fc receptor staining, small aliquots of cells from the lung suspensions were separated and stained with PE or PerCP-Cy5.5-CD16/32 antibody (the incubation with Mouse True Stain FcX was skipped in that aliquot of cells). Tumor cells were stained with APC-conjugated anti-H2-Kb (AF6-88.5, Biolegend) and BV650-activated Caspase-3 (C92-605, BD Pharmingen) following permeabilization. Even though the CD45.2 antibody given intravenously and the anti-H2-Kb antibody were conjugated to the same fluorophore (APC), B16F10 cells could be identified based on their larger size, ZsGreen expression as well as the absence of CD45.2 expression. Samples were acquired using a LSR Fortessa, CytoFLEX or a Sony Spectral Analyzer and analyzed by FlowJo V10 software.

[3] = tested on: A375 human melanoma cell line; experiment: Dacarbazine combination with MICA/B antibody, A375 cells; assay type: cell-based

B1: 7C6: monoclonal antibody from mice immunized with recombinant MICA α3 domain; parental mIgG2b; VH SEQ ID NO: 7, VL SEQ ID NO: 8 (antibody)
VH: QIQLVQSGPELKKPGETVKVSCKASGYMFTNYAMNWVKQAPEKGLKWMGWINTHTGDPTYADDFKGRIAFSLETSASTAYLQINNLKNEDTATYFCVRTYGNYAMDYWGQGTSVTVSSAKTTAPSVYPLAPVCGDTTGSSVTLGCLVKGYFPEPVTLTWNSGSLSSGVHTFPAVLQSDLYTLSSSVTVTSS
VL: DIQMTQTTSSLSASLGDRVTISCSASQDISNYLNWYQQKPDGTVKLLIYDTSILHLGVPSRFSGSGSGTDYSLTISNLEPEDIATYYCQQYSKFPRTFGGGTTLEIK
modifications: mAb 7C6 heavy chain amino acid sequence; mAb 7C6 light chain amino acid sequence
[1]; B16F10-MICA, 200 μg
  subcutaneous tumor growth inhibition, Igh−/− versus wild-type mice: inhibited growth of subcutaneous B16F10-MICA melanomas more effectively in B cell deficient mice
[1]; Igh−/− mice
  therapeutic activity against subcutaneous tumors that secrete MICA or lack NKG2D ligands: no therapeutic effect was observed
[1]; Igh−/− mice, treatment from day 5
  therapeutic activity against subcutaneous tumors expressing full-length MICA or MICB: restricted to subcutaneous tumors that expressed full-length MICA or MICB
[1]; NKG2D blockade, DANA mutant
  receptor requirement for inhibition of subcutaneous tumor growth: NKG2D and CD16 Fc receptors were also both required for inhibition of subcutaneous tumor growth
[1]; tumors secreting MICA
  clearance of secreted MICA protein (serum, day 9): did not promote clearance of secreted MICA protein
[1]; tumors with full-length MICA or MICB
  MICA and MICB shedding (serum, day 9): inhibited MICA and MICB shedding
[2]; lung metastases
  H2-Kb (MHC class I) expression by tumor cells: MHC class I upregulation
  apoptosis of tumor cells (active caspase-3): massive tumor cell apoptosis
[2]; mouse, in vivo
  B16F10-MICA tumor cells within lung tissue (percentage, absolute numbers): substantial reduction of tumor cell load within lung tissue
[2]; versus isotype control
  NKG2D levels on lung-infiltrating NK cells: restored NKG2D levels by lung NK cells
[3]; 30 mM dacarbazine, 10 μg/ml 7C6, 48 hours
  human NK cell killing of A375 cells, dacarbazine combination with MICA/B antibody: is increased by dacarbazine combination with MICA/B antibody
[3]; A375, 48 hours, 10 μg/ml antibody with dacarbazine
  MICA/B shedding (6D4-PE staining): inhibited MICA/B shedding
